# Experimental data reported in patent publication US20040175785A1, “Increasing bioavailability of carotenoids” (priority 2001, published 2004).
# Experiment: Enzymatic deesterification of paprika oleoresin carotenoids, HPLC determination
# Assay type: biochemical
# Description: HPLC was conducted on a Shimadzu LC-10 AT equipped with SCL-10A Shimadzu diode array detector. Photodiode array measurements of spectral properties from the individual peaks (from 260 to 540 nm) were determined at the upslope, apex and downslope. The column (Merck RP-18e 3.4×250 […], 5-μm particles) was used for HPLC separations. The peaks were detected at 450 and 474 nm.
# Deesteriflcation paprika oleoresin by enzymes: Paprika oleoresin (20 mg) was mixed with TWEEN-20 (200 μl) or deoxycholate (100 mg) and 10 ml of H2O. The emulsion has been shaken at 37° C. for 24 hours. Extraction of carotenoids was performed by the addition of 4 ml of ethanol and 5 ml of hexane. The extraction with hexane was done repeatedly until no color could be observed in the extracts. The combined hexane extracts were washed with water (25 ml) and dried over anhydrous sodium sulfate for HPLC determination of the carotenoids.
molecule,measurement,setting,value
"pancreatic lipase: lipase pancreatic from porcine, obtained from Sigma Chemical Co. (protein, UniProt P00591 1-450, looked up) Pancreatic triacylglycerol …: SEVCFPRLGCFSDDAPWAGIVQRPLKILPWSPKDVDTRFLLYTNQNQNNYQELVADPSTITNSNFRMDRKTRFIIHGFIDKGEEDWLSNICKNLFKVESVNCICVDWKGGSRTGYTQASQNIRIVGAEVAYFVEVLKSSLGYSPSNVHVIGHSLGSHAAGEAGRRTNGTIERITGLDPAEPCFQGTPELVRLDPSDAKFVDVIHTDAAPIIPNLGFGMSQTVGHLDFFPNGGKQMPGCQKNILSQIVDIDGIWEGTRDFVACNHLRSYKYYADSILNPDGFAGFPCDSYNVFTANKCFPCPSEGCPQMGHYADRFPGKTNGVSQVFYLNTGDASNFARWRYKVSVTLSGKKVTGHILVSLFGNEGNSRQYEIYKGTLQPDNTHSDEFDSDVEVGDLQKVKFIWYNNNVINPTLPRVGASKITVERNDGKVYDFCSQETVREEVLLTLNPC",extent of deesterification of paprika carotenoids,"general statement, ""shown herein""",to a very limited extent
same,"deesterification in similar assays with other lipases, compared with lipase amano 30",similar assays to FIGS. 3 and 4,far poorer results
